Experimental data taken from the supplement of paper PMC10065799, “High-throughput profiling of sequence recognition by tyrosine kinases and SH2 domains using bacterial peptide display” (eLife, 2023).

Assays:
Jak2 = Jak2 (UniProt O60674); test: phosphorylation enrichment, bacterial display (enrichment ratio); higher = better substrate or ligand; peptides without Tyr show the background
EPHB1 = EPHB1 (UniProt P54762); test: as above
c-Src = test: as above
Fyn = Fyn (UniProt P06241); test: as above
Fyn, sequence (P06241 whole entry, looked up): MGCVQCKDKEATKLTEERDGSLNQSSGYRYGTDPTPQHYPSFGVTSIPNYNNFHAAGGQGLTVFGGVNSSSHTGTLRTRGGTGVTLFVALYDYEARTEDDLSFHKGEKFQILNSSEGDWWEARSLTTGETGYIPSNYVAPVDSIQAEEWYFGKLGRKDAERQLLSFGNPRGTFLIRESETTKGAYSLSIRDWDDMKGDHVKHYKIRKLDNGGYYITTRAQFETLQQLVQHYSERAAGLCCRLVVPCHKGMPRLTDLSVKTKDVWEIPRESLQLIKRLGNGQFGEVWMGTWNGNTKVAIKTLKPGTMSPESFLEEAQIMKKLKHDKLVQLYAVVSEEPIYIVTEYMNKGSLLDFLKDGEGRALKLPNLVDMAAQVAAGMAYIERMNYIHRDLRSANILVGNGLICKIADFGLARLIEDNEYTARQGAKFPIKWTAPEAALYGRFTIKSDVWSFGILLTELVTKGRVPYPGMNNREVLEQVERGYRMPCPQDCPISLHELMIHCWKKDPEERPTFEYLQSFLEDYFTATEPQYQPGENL

EPHB2 = EPHB2 (UniProt P29323); test: as above
AncSZ = test: as above
Fer (mouse) = test: as above
MERTK = MERTK (UniProt Q12866); test: as above
MERTK, sequence (Q12866 whole entry, looked up): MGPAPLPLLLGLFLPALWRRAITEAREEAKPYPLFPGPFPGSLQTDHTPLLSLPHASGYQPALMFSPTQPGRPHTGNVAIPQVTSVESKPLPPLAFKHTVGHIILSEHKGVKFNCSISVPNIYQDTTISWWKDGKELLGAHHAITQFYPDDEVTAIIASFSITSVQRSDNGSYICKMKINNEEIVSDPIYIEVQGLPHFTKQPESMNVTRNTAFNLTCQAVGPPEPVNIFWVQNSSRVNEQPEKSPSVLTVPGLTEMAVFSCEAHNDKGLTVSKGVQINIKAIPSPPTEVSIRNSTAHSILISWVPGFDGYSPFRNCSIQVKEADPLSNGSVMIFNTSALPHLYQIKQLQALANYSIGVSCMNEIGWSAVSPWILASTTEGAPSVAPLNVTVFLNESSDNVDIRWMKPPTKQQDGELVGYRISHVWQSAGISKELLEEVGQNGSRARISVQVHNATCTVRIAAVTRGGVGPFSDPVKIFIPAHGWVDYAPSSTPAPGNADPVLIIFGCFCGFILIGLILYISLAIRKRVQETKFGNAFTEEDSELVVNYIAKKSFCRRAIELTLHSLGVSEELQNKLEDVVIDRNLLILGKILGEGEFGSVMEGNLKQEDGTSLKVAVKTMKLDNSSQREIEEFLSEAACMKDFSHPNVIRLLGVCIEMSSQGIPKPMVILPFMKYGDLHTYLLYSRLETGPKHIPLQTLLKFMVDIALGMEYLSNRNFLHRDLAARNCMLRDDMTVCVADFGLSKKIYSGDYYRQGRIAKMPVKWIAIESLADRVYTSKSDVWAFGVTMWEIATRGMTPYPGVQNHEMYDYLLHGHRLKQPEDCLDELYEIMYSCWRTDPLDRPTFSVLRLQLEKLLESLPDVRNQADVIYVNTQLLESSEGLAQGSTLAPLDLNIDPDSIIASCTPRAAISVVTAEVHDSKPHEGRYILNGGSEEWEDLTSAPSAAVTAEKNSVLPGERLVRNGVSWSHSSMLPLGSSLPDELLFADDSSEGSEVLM

c-Abl (mouse) = test: as above
Fes = Fes (UniProt P07332); test: as above
FGFR3 = FGFR3 (UniProt P22607); test: as above
FGFR3, sequence (P22607 whole entry, looked up): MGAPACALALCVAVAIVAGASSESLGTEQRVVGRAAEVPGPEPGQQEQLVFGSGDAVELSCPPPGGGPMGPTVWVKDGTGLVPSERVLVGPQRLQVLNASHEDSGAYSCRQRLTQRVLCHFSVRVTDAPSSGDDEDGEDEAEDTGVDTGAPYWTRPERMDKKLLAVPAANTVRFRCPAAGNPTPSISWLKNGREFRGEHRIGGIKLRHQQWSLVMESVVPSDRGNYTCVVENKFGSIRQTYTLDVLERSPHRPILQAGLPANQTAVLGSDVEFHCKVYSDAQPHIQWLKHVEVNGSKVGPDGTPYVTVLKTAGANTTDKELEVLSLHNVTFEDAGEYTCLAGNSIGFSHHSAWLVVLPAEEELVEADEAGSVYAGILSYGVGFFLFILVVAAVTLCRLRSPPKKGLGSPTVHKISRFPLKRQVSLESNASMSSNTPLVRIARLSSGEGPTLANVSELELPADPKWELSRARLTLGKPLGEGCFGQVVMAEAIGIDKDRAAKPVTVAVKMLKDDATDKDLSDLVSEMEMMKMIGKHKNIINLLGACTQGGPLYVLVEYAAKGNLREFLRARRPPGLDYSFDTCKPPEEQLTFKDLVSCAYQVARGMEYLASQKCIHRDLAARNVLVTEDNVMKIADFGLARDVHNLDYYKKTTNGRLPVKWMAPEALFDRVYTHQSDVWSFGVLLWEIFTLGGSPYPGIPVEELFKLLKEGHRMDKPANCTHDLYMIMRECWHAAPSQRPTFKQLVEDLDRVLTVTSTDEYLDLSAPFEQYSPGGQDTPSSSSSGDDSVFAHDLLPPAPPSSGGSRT

Hck = Hck (UniProt P08631); test: as above
Hck, sequence (P08631 whole entry, looked up): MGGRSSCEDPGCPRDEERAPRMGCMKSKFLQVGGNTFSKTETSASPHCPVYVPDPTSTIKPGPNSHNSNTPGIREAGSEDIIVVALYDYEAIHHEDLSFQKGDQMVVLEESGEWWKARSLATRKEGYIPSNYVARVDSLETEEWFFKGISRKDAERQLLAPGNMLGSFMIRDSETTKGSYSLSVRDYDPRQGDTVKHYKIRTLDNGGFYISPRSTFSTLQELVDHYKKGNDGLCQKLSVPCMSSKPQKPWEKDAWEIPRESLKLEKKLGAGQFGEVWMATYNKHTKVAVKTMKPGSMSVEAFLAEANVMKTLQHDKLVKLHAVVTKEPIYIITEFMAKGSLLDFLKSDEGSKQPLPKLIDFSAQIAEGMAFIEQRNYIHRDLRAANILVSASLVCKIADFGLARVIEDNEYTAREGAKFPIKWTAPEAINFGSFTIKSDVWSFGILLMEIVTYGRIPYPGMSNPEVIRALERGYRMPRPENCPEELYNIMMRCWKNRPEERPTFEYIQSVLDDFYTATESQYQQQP

FGFR1 = FGFR1 (UniProt P11362); test: as above
Grb2 SH2 = Grb2 SH2 (UniProt P62993); test: SH2 binding enrichment of the phosphorylated peptide, bacterial display (enrichment ratio); higher = better substrate or ligand; peptides without Tyr show the background
SHP2-C SH2 = test: as above
c-Src SH2 = test: as above
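Throughout, for SH2 binding enrichment of the phosphorylated peptide, bacterial display: peptide library displayed on the E. coli surface as eCPX fusions, selected cells deep-sequenced, score is each peptide's frequency after selection divided by its frequency in the input.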
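Throughout, for phosphorylation enrichment, bacterial display: 11-residue human phosphosite peptides and single-mutation variants displayed on the E. coli surface, counted by deep sequencing, each peptide's frequency after selection divided by its frequency in the unselected input library; frequency after pTyr selection over input frequency; kinase dosed for 20-30% of maximal phosphorylation in three min.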

Jak2, sequence (O60674 whole entry, looked up): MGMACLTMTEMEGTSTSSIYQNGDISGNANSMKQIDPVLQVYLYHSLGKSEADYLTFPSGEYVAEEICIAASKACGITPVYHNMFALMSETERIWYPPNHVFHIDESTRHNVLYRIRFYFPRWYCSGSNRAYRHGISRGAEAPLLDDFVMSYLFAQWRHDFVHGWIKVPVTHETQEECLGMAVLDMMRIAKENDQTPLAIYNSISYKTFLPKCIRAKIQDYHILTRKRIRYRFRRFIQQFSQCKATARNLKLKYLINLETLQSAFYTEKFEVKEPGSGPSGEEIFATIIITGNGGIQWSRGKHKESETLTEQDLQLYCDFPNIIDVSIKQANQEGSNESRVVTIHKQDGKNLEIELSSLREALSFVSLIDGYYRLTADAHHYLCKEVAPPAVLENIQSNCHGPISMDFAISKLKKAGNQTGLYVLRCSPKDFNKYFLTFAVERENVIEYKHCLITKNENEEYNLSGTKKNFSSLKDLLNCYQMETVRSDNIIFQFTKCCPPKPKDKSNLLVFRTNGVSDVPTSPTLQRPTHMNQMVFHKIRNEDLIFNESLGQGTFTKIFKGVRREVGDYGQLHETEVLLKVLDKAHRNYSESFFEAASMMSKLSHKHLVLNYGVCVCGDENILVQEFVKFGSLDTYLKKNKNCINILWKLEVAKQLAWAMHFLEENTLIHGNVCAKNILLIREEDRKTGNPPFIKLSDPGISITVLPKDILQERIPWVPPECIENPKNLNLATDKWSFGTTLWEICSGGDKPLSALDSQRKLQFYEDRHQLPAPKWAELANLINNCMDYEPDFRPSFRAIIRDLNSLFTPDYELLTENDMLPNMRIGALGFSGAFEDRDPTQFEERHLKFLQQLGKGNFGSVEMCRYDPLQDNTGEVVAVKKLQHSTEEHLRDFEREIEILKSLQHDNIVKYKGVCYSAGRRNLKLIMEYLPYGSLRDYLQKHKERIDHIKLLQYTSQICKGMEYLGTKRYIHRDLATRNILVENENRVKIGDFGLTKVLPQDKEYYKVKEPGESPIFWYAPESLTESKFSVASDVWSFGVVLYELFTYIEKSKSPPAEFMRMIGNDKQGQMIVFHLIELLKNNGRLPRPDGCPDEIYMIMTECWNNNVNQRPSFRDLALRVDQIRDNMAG
EPHB1, sequence (P54762 whole entry, looked up): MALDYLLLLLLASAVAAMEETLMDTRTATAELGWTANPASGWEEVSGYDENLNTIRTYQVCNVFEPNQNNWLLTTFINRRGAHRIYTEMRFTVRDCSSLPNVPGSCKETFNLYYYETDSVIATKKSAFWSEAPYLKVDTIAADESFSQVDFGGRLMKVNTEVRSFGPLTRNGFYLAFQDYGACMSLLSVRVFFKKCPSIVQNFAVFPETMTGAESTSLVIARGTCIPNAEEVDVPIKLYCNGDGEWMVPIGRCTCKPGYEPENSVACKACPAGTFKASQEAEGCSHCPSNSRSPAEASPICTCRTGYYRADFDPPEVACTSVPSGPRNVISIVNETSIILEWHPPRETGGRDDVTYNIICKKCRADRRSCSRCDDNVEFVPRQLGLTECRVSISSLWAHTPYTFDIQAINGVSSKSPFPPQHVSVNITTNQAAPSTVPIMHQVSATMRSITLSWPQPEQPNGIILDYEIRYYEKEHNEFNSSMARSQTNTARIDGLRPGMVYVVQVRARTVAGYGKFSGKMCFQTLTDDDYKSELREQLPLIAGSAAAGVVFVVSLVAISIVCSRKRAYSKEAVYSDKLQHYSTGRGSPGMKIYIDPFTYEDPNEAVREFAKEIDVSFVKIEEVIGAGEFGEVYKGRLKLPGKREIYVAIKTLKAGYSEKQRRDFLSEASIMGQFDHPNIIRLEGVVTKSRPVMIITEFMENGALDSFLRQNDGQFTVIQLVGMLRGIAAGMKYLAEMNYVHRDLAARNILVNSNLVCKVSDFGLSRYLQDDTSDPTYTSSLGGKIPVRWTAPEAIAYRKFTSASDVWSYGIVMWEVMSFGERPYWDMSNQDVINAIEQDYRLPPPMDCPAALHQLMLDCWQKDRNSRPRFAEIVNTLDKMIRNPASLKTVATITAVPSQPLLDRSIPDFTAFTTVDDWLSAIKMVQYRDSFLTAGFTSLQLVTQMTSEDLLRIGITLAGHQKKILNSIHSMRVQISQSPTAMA

SH2 binding enrichment (Grb2 SH2) | SH2 binding enrichment (SHP2-C SH2) | SH2 binding enrichment (c-Src SH2) | Sequence | phosphorylation enrichment (Jak2) | phosphorylation enrichment (EPHB1) | phosphorylation enrichment (c-Src) | phosphorylation enrichment (Fyn) | phosphorylation enrichment (EPHB2) | phosphorylation enrichment (AncSZ) | phosphorylation enrichment (Fer (mouse)) | phosphorylation enrichment (MERTK) | phosphorylation enrichment (c-Abl (mouse)) | phosphorylation enrichment (Fes) | phosphorylation enrichment (FGFR3) | phosphorylation enrichment (Hck) | phosphorylation enrichment (FGFR1)
0.879 | 0.54 | 0.453 | QDTSRYTVSNL [BIRC3_Y245] | 0.644 | 0.675 | 0.617 | 0.523 | 0.467 | 0.971 | 0.501 | 0.567 | 0.804 | 0.824 | 0.71 | 0.467 | 0.516
0.91 | 0.699 | 0.646 | QEGPEYWDEET [HLA-A_Y83_Q86E] | 1.38 | 1.25 | 0.796 | 1.02 | 1.25 | 2.5 | 0.951 | 1.07 | 1.32 | 1.88 | 1.33 | 1.05 | 1.24
0.856 | 0.711 | 0.377 | QEGPEYWDRNT [HLA-B_Y83] | 0.806 | 0.9 | 0.485 | 0.763 | 0.741 | 1.36 | 0.557 | 0.49 | 0.757 | 1.29 | 0.913 | 0.685 | 1.03
1.47 | 1.23 | 1.2 | QGIFGYHHFMQ [UFSP2_Y287_YF] | 1.27 | 0.794 | 0.531 | 0.615 | 0.59 | 1.32 | 0.857 | 0.549 | 1.13 | 1.41 | 0.93 | 0.692 | 0.838
0.766 | 1.13 | 0.466 | QKMADYSNKLH [PDPR_Y104_Y109H] | 0.974 | 0.569 | 0.706 | 0.382 | 0.864 | 0.843 | 0.571 | 0.429 | 0.714 | 0.835 | 0.708 | 0.586 | 0.527
0.915 | 0.5 | 0.635 | QLAPQYTFTQG [FLNA_Y1761_A1764T_YF] | 1.21 | 0.621 | 1.12 | 1.09 | 0.845 | 1.27 | 0.58 | 1.1 | 1.49 | 1.09 | 0.982 | 0.748 | 0.918
0.887 | 2.01 | 3.16 | QLAPQYTYAQG [FLNA_Y1761] | 0.696 | 0.52 | 0.693 | 0.61 | 1.19 | 0.722 | 0.448 | 0.65 | 0.61 | 1.01 | 0.704 | 0.624 | 0.714
0.796 | 0.571 | 0.528 | QLCVNYPGGYT [PROS1_Y259] | 0.999 | 1.32 | 0.537 | 1 | 0.772 | 1.24 | 0.811 | 0.513 | 0.845 | 1.66 | 1.42 | 0.965 | 0.767
1.33 | 1.54 | 1.17 | QLFGPYLRIHA [BSCL2_Y213_A212P_YF] | 1.35 | 1.13 | 0.785 | 0.588 | 0.548 | 1.25 | 0.427 | 0.485 | 0.628 | 1.56 | 1.03 | 0.515 | 0.733
0.752 | 0.513 | 0.546 | QLQTNYPSSDN [MAX_Y115] | 0.773 | 0.583 | 0.628 | 0.476 | 0.766 | 0.951 | 0.551 | 0.657 | 1.02 | 1.14 | 0.725 | 0.527 | 0.642
0.697 | 0.906 | 0.475 | QLRPGYFPIPV [BAG3_Y93_I94F] | 0.981 | 0.448 | 0.423 | 0.536 | 0.585 | 0.6 | 0.42 | 0.531 | 0.53 | 0.679 | 0.56 | 0.466 | 0.593
0.668 | 0.964 | 0.464 | QRASDYFSQQM [GBP6_Y333_A331S_YF] | 1.02 | 1.56 | 0.632 | 0.662 | 0.854 | 1.29 | 0.667 | 0.711 | 1.28 | 1.49 | 1.39 | 0.866 | 0.684
1.48 | 0.842 | 0.911 | QRHFVYFFSFL [PTEN_Y176_R173H_YF] | 1.46 | 0.983 | 0.664 | 1.07 | 0.761 | 1.91 | 1.11 | 0.717 | 1.31 | 1.88 | 1.46 | 1.09 | 1.69
0.776 | 0.683 | 0.507 | QRRYLYYYSYL [PTEN_Y176_V175L] | 4.97 | 1.19 | 2.84 | 1.62 | 1.12 | 1.14 | 0.671 | 7.18 | 0.494 | 0.887 | 3.52 | 2.2 | 4.64
0.713 | 0.421 | 0.488 | QRVLLYVRRET [GRHL3_Y518] | 0.9 | 0.461 | 0.834 | 0.699 | 0.577 | 1.01 | 0.468 | 0.801 | 0.41 | 0.796 | 0.781 | 0.669 | 0.676
0.904 | 0.904 | 0.638 | QSPQLYKQMCI [DARS1_Y253] | 0.917 | 0.836 | 0.485 | 0.796 | 0.559 | 0.881 | 0.673 | 0.603 | 0.932 | 0.896 | 0.573 | 0.634 | 0.461
0.662 | 0.751 | 0.367 | QTEAPYRFIFM [PTPN11_Y511_Q510P_YF] | 1.55 | 0.728 | 0.777 | 0.637 | 0.626 | 1.34 | 4.48 | 0.595 | 1.34 | 1.34 | 1.98 | 0.645 | 2.71
